Experimental data from patent US7238668B1, “Inhibition of lymphocyte adherence with CS-1-peptides and fragments thereof” (Fred Hutchinson Cancer Research Center, priority 1989, dated 2007).
Ends that are not written are not given here.

How the values were obtained:
[1] = target: integrin β1 subunit (human) (UniProt P05556); test: cell-based or functional assay
Jurkat cells = test: Jurkat cell adhesion to surfaces coated with peptide-rsa conjugates; format: cell-based, human; details: peptide-rsa conjugate coated surfaces, 50% of total input cpm
Method: ^51Cr-labeled Jurkat cells ([…]) were incubated on surfaces coated with varying concentrations of peptide-rsa conjugates starting at 50 ug/ml (w/v) fragment or peptide (based on peptide not peptide-conjugate weight). […] (No adhesion=no measurable adhesion above negative controls.)
Adhesion of various hematopoetic cell lines to CS-1 (open bars; FIG. 12) or LDV minimal peptide-coated surfaces (cross-hatched bars; FIG. 12) was tested as follows: Jurkat (T lymphoblastoid), A375 (melanoma), U937 (monocytic), Ramos (B lymphoblastoid), and ST-1 (EBV transformed B lymphoblastoid) cells were allowed to adhere to CS-1-rsa or LDVPST-rsa (5 ug/ml peptide) coated surfaces for 30 min at 37° C. At the end of this time the non-adherent cells were washed off and the adherent cells were solubilized in NaOH/SDS and quantitated in a gamma counter. The results are expressed as bound counts per minute.

integrin receptor α4β1 [2] = target: T1, integrin receptor α4β1 (human, UniProt P13612 34-1032; P05556 21-798); test: soluble peptide against 51Cr-Jurkat adhesion to plasma fibronectin (5 ug/ml coat); 50% inhibition point read from plot
T1 construct: whole, on cells; also called α4β1 extracellular matrix receptor; VLA 4
T1 sequence (P13612 34-1032, form in doubt, chain 1 of 2): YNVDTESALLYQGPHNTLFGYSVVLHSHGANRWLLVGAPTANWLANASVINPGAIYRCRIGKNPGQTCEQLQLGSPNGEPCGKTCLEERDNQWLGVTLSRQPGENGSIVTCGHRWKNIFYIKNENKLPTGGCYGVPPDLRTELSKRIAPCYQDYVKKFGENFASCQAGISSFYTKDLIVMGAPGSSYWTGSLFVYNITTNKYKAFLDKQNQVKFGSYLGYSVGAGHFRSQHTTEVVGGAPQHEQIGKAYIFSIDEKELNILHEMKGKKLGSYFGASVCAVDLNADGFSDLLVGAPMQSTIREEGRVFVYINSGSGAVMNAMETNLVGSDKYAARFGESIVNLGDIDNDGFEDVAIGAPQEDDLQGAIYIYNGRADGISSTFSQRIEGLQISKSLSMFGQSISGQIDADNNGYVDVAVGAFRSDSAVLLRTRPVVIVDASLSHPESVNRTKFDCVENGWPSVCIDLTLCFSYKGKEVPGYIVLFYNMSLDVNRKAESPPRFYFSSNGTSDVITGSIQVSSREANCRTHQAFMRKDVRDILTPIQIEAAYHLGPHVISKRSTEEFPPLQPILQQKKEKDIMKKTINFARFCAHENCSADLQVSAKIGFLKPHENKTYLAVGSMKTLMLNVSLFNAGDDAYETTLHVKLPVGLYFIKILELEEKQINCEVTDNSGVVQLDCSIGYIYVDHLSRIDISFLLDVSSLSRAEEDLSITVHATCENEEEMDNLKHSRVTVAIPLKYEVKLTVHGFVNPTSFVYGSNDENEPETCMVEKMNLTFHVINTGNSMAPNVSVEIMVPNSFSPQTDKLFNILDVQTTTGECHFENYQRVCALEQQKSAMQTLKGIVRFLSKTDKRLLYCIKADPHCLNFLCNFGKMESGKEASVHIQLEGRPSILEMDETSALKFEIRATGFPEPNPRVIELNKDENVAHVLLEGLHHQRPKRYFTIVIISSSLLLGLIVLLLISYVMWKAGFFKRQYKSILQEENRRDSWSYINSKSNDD
T1 sequence (P05556 21-798, form in doubt, chain 2 of 2): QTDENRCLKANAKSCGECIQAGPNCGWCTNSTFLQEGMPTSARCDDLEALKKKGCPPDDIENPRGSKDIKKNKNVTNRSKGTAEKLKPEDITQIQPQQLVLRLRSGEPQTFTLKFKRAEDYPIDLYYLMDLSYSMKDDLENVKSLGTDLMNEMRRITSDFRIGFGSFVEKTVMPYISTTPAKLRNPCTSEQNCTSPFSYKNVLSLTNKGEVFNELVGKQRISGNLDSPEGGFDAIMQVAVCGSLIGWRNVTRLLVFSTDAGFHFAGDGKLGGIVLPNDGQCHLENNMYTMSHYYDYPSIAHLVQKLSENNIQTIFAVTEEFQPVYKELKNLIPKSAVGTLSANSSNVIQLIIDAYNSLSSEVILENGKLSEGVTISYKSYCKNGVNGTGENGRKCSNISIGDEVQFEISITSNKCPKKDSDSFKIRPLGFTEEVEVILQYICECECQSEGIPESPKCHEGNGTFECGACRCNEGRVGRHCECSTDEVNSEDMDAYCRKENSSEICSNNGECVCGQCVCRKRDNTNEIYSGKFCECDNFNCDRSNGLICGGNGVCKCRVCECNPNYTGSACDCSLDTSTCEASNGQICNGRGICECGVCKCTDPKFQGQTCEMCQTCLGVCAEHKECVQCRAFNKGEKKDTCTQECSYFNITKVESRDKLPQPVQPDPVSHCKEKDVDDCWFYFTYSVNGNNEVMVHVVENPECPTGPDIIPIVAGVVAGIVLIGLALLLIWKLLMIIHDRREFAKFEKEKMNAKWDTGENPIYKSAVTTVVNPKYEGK
Method: For these experiments in Table XIII ^51Cr-labeled Jurkat cells (10^5/well) were incubated in the presence of the varying concentrations (starting at 2 mg/ml) of the indicated peptides for 15 min.

integrin α5β1 = integrin α5β1 (human, UniProt P08648 42-1049; P05556 21-798); test: cell-based or functional assay
integrin α5β1, sequence (P08648 42-1049, chain 1 of 2): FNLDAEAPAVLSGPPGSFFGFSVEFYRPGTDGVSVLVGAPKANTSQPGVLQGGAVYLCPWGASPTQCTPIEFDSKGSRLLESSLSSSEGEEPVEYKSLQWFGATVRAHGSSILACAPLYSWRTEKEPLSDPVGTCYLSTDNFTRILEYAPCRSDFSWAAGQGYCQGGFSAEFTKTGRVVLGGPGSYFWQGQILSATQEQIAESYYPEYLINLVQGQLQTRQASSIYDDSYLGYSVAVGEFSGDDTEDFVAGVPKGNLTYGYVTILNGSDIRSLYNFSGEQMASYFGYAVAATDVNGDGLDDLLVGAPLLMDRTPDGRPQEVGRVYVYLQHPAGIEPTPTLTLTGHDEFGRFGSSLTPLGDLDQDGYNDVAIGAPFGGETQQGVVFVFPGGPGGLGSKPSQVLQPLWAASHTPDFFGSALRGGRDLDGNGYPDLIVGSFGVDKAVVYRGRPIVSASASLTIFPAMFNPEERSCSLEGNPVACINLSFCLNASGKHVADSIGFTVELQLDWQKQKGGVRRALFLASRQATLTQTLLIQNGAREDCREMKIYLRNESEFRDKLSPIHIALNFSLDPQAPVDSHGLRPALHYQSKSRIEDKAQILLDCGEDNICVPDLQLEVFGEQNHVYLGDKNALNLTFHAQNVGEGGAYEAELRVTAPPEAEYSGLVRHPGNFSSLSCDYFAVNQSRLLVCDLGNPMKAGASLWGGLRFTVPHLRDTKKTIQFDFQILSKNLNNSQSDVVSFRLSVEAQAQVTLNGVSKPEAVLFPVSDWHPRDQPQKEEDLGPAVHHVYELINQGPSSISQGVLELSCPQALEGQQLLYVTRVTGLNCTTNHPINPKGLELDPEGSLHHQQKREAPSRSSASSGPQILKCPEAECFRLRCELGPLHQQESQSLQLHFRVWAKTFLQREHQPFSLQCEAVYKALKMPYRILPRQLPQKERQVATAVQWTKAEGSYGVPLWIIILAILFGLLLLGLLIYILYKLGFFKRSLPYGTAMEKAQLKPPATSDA
integrin α5β1, sequence (P05556 21-798, chain 2 of 2): as the sequence (P05556 21-798, form in doubt, chain 2 of 2) above

integrin receptor α4β1 [3] = target: T1, integrin receptor α4β1; test: cell-based or functional assay
integrin receptor α4β1 [4] = target: T1, integrin receptor α4β1; test: cell-based or functional assay; remark: listed apart in the source

integrin β1 subunit (human), sequence (P05556 21-798): as the sequence (P05556 21-798, form in doubt, chain 2 of 2) above

monoclonal antibody 8A2
concentration of 8A2 able to stimulate increased avidity of a low avidity α4β1 receptor complex for fibronectin, CS-1, or LDV minimal peptides [1]: 0.1 µg/mL

monoclonal antibody P4C10
Adhesion (cpm), Jurkat (T) on HUVE monolayers, +IL-1β; SP2 control 372159 [1]: 230000 cpm | Adhesion (cpm), Jurkat (T) on HUVE monolayers, Basal; SP2 control 83924 [1]: 36900 cpm | Adhesion (cpm), LAD (B) on HUVE monolayers, +IL-1β; SP2 control 104672 [1]: 52600 cpm | Adhesion (cpm), LAD (B) on HUVE monolayers, Basal; SP2 control 19542 [1]: 6360 cpm | Adhesion (cpm), Ramos (B) on HUVE monolayers, +IL-1β; SP2 control 12157 [1]: 3150 cpm | Adhesion (cpm), Ramos (B) on HUVE monolayers, Basal; SP2 control 972 [1]: 604 cpm

rsa-A13: A13 peptide conjugated to rabbit serum albumin (DELPQLVTLPHPN; also: conjugated to rabbit serum albumin)
Molar Concentration (nM) required for 50% adhesion of Jurkat cells (Jurkat cells): No Adhesion

rsa-LDV: LDV conjugated to rabbit serum albumin (Leu-Asp-Val; also: conjugated to rabbit serum albumin)
EC50 (Jurkat cells; read-out: Molar Concentration (nM) required for 50% adhesion of Jurkat cells): > 2000 nM

EILDV [EILDV peptide]
IC50 (integrin receptor α4β1 [2]): 660 µM

RGDS [RGDS peptide]
Adhesion (cpm), Jurkat (T) on HUVE, +IL-1β; no peptide 314848 (integrin α5β1): 358000 cpm | Adhesion (cpm), Jurkat (T) on HUVE, Basal; no peptide 161092 (integrin α5β1): 299000 cpm | Adhesion (cpm), LAD (B) on HUVE, +IL-1β; no peptide 71408 (integrin α5β1): 102000 cpm | Adhesion (cpm), LAD (B) on HUVE, Basal; no peptide 44860 (integrin α5β1): 70700 cpm | Adhesion (cpm), Ramos (B) on HUVE, +IL-1β; no peptide 12936 (integrin α5β1): 28100 cpm | Adhesion (cpm), Ramos (B) on HUVE, Basal; no peptide 2724 (integrin α5β1): 16900 cpm

VPST [VPST peptide]
Adhesion (cpm), Jurkat (T) on HUVE, +IL-1β; no peptide 314848 (integrin receptor α4β1 [3]): 322000 cpm | Adhesion (cpm), Jurkat (T) on HUVE, Basal; no peptide 161092 (integrin receptor α4β1 [3]): 204000 cpm | Adhesion (cpm), LAD (B) on HUVE, +IL-1β; no peptide 71408 (integrin receptor α4β1 [3]): 98900 cpm | Adhesion (cpm), LAD (B) on HUVE, Basal; no peptide 44860 (integrin receptor α4β1 [3]): 38200 cpm | Adhesion (cpm), Ramos (B) on HUVE, +IL-1β; no peptide 12936 (integrin receptor α4β1 [3]): 15300 cpm | Adhesion (cpm), Ramos (B) on HUVE, Basal; no peptide 2724 (integrin receptor α4β1 [3]): 4170 cpm | Adhesion (cpm), Jurkat (T) on HUVE, +IL-1β; unrelated peptide 293(A) 129864 (integrin receptor α4β1 [4]): 128000 cpm | Adhesion (cpm), LAD (B) on HUVE, +IL-1β; unrelated peptide 293A 74096 (integrin receptor α4β1 [4]): 42700 cpm | Adhesion (cpm), Ramos (B) on HUVE, +IL-1β; unrelated peptide 293A 11132 (integrin receptor α4β1 [4]): 4570 cpm

B1: CS-1 peptide (peptide)
peptide: DELPQLVTLPHPNLHGPEILDVPST
notes: Free peptide; also called peptide 344; synthetic CS-1
IC50 (integrin receptor α4β1 [2]): 180 µM | Adhesion (cpm), Jurkat (T) on HUVE, +IL-1β; no peptide 314848 (integrin receptor α4β1 [3]): 249000 cpm | Adhesion (cpm), Jurkat (T) on HUVE, Basal; no peptide 161092 (integrin receptor α4β1 [3]): 82400 cpm | Adhesion (cpm), LAD (B) on HUVE, +IL-1β; no peptide 71408 (integrin receptor α4β1 [3]): 51600 cpm | Adhesion (cpm), LAD (B) on HUVE, Basal; no peptide 44860 (integrin receptor α4β1 [3]): 23000 cpm | Adhesion (cpm), Ramos (B) on HUVE, +IL-1β; no peptide 12936 (integrin receptor α4β1 [3]): 5160 cpm | Adhesion (cpm), Ramos (B) on HUVE, Basal; no peptide 2724 (integrin receptor α4β1 [3]): 1840 cpm | Adhesion (cpm), Jurkat (T) on HUVE, +IL-1β; unrelated peptide 293(A) 129864 (integrin receptor α4β1 [4]): 75800 cpm | Adhesion (cpm), LAD (B) on HUVE, +IL-1β; unrelated peptide 293A 74096 (integrin receptor α4β1 [4]): 26200 cpm | Adhesion (cpm), Ramos (B) on HUVE, +IL-1β; unrelated peptide 293A 11132 (integrin receptor α4β1 [4]): 2830 cpm

GPEILDVPST (also called peptide 354) [GPEILDVPST peptide]
IC50 (integrin receptor α4β1 [2]): 450 µM | Adhesion (cpm), Jurkat (T) on HUVE, +IL-1β; unrelated peptide 293(A) 129864 (integrin receptor α4β1 [4]): 89700 cpm | Adhesion (cpm), LAD (B) on HUVE, +IL-1β; unrelated peptide 293A 74096 (integrin receptor α4β1 [4]): 27200 cpm | Adhesion (cpm), Ramos (B) on HUVE, +IL-1β; unrelated peptide 293A 11132 (integrin receptor α4β1 [4]): 2260 cpm

LHGPEILDVPST (also called CS-1-B12) [B12 peptide]
IC50 (integrin receptor α4β1 [2]): 400 µM
